The target of this assay is semiSWEET. In words: native MS.

One may read the stoichiometry N as the number of molecules, sites or subunits per partner or assembly.

semiSWEET (natural protein) came in with a stoichiometry N of 2.
